Target: T1, CstF-50 (full length, affinity tag removed) (human), Q05048
T1 chain: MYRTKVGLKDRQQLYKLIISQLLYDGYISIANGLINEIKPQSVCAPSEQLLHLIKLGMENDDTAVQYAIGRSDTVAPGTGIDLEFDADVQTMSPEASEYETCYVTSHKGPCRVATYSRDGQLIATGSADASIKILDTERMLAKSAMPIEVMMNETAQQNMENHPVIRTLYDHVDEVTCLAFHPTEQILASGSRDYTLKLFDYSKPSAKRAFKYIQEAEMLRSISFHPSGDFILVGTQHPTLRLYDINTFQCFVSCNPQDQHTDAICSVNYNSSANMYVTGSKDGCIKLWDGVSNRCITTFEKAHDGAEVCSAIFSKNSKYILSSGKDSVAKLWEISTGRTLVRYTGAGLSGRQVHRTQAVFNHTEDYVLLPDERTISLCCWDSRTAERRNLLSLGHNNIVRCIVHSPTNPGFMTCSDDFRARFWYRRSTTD
Assay: SEC-MALS
Conditions: remark: other sources report otherwise

B1: CstF-50 (full length, affinity tag removed), Q05048 1-431 (natural protein)
chain: MYRTKVGLKDRQQLYKLIISQLLYDGYISIANGLINEIKPQSVCAPSEQLLHLIKLGMENDDTAVQYAIGRSDTVAPGTGIDLEFDADVQTMSPEASEYETCYVTSHKGPCRVATYSRDGQLIATGSADASIKILDTERMLAKSAMPIEVMMNETAQQNMENHPVIRTLYDHVDEVTCLAFHPTEQILASGSRDYTLKLFDYSKPSAKRAFKYIQEAEMLRSISFHPSGDFILVGTQHPTLRLYDINTFQCFVSCNPQDQHTDAICSVNYNSSANMYVTGSKDGCIKLWDGVSNRCITTFEKAHDGAEVCSAIFSKNSKYILSSGKDSVAKLWEISTGRTLVRYTGAGLSGRQVHRTQAVFNHTEDYVLLPDERTISLCCWDSRTAERRNLLSLGHNNIVRCIVHSPTNPGFMTCSDDFRARFWYRRSTTD
stoichiometry N: 2
